This is an account of results in the supplement of paper PMC9170038.

This data set has as its system MS2 coat protein. Kind of data set: apparent KD of MS2 coat protein; designed switch direction (-1 OFF switch, 1 ON switch): -1; higher = weaker reporter binding. Summed up: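 The buffer was Tris-HCl pH 7.5 with KCl, MgCl2, BSA, DTT, tRNA and Tween-20. In it, SNAP-549-labelled MS2 coat protein was titrated in doubling steps from 0.7 or 1.5 nM to 3 µM over chip-bound RNA switches transcribed by stalled E. coli RNA polymerase on Illumina chips. Apparent KD is the per-design median over clusters of curve fits to normalised fluorescence.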

Where [1] appears, read: Eterna round: R95, input ligand: microRNA oligo, concentration not stated.
[2] abbreviates: input ligand: microRNA oligo, concentration not stated.
The mark [3] stands for this setting: Eterna round: R95, input ligand: FMN 200 uM.
Setting [4] is: Eterna round: R95, input ligand: none.

For “GUAGAGUAAGGAUAUGCUGAAUAGGAUAGAAUGGUUAGAAAGCAGAAGGUACAUGAGGAUCACCCAUGUAAUGU [Excluse me!!!! 18 - Jieux - Exclusion 4] (puzzle: Exclusion 4)”, under setting [1], the “apparent KD of MS2 coat protein” value worked out at 20 nM.

For “GUAGAGUCAGGAUAUACAAGAUCGAUAGAUCAAAGACCCAUACAUGAGGAUCACCCAUGUAGAAGGGACUCUAC [Mat - Exclusion 2 - Eli Mod - D11] (Eterna round: R97, puzzle: Exclusion 2)”, the “apparent KD of MS2 coat protein” value is, setting by setting: (input ligand: FMN 200 uM) 23 nM; (input ligand: none) 18.7 nM.

As for “GUAGAGUCAGGAUAUACGAGAUCGAAAGAUCGGCGAUCCCUACAUGAGGAUCACCCAUGUAGAAGGGACUCUAC [Eli x2 4.12] (Eterna round: R97, puzzle: Exclusion 2)”, the “apparent KD of MS2 coat protein” value by setting is: (input ligand: FMN 200 uM) 28.7 nM; (input ligand: none) 14.9 nM.

Turning to “GUAGAUCGAGUUAGGAUAUGAUUAAAAUCCGGAUAUCAGAAGGAACUUGAGGAUCACCCAAGUAUAGAUGAUUC [JR_BMEx4_Sub056] (Eterna round: R97, puzzle: Brourd's mod of Exclusion 4)”, the “apparent KD of MS2 coat protein” value (input ligand: FMN 200 uM) amounted to 216 nM and the “apparent KD of MS2 coat protein” value (input ligand: none) is 47.9 nM.

With “GUAGGGUCAGGAUAUACUGGCUGAGGGAUGUAUUGUAGUUGGUAGAAGGGACAUGAGGAUCACCCAUGUAAGAA [JR_Exclu4_Sub056] (puzzle: Exclusion 4)”, the “apparent KD of MS2 coat protein” value under setting [1] was found to be 31.6 nM.

For “GUAUAUAGUGUGAGGAUAUGCUGGUCCUUGGAUCAGCAGAAGGCACAUGAGGAUCACCCAUGUAGUUUAUUUUA [Mat - Exclusion 4 - JL Mod - D3] (puzzle: Brourd's mod of Exclusion 4)”, the “apparent KD of MS2 coat protein” value under setting [1] was determined as 25.8 nM.

As for “GUAUUUUGAGGAUAUACAUGAGGAUCACCCAUGUGUCGUAGCGCCAGCCUUAAUACGUGUAGAAGGCAGAAUGU [Eternabot (L1) Solution 75] (Eterna round: R97, puzzle: Exclusion 3)”, the “apparent KD of MS2 coat protein” value is, setting by setting: (input ligand: FMN 200 uM) 20 nM; (input ligand: none) 34 nM.

As to “GUCAGCUCGUCAGGAUAUACAUGAGGAUCACCCAUGUGAUCAAUAGCAGCUUCGGCUGCAUACAUGUAGAAGGGACGAGCUGAU [ENG2/6-B2] (Eterna round: R96, puzzle: Exclusion NG 2)”, the “apparent KD of MS2 coat protein” value reads like this: (input ligand: FMN 200 uM) 195 nM; under setting [2], 15.3 nM; (input ligand: none) 160 nM.

With “GUCAGCUCGUGAGGAUAUACAUGAGGAUCACCCAUGUGAUCAAUAGCAGCUUCGGCUGCAUACAUGUAGAAGGCACGAGCUGAC [ENG2/6-A1] (Eterna round: R96, puzzle: Exclusion NG 2)”, the “apparent KD of MS2 coat protein” value is, setting by setting: (input ligand: FMN 200 uM) 22.4 nM; under setting [2], 19.7 nM; (input ligand: none) 28.5 nM.

Consider “GUCAGCUCGUGAGGAUAUACAUGAGGAUCACCCAUGUGGUCAAUAGCAGCUUCGGCUGCAAUAAUGUAGAAGGCACGAGCUGAC [ENG2/8-D] (Eterna round: R96, puzzle: Exclusion NG 2)”, for which the “apparent KD of MS2 coat protein” value runs as follows: (input ligand: FMN 200 uM) 57.4 nM; under setting [2], 1030 nM; (input ligand: none) 208 nM.

Take “GUCAGCUCGUGAGGAUAUACAUGCGUGCUUCGGCACGAAUUUAAGAUCACAUGAGGAUCACCCAUGUAGAAGGUACGAGCUGAU [ENG2/3-C2] (Eterna round: R96, puzzle: Exclusion NG 2)”: the “apparent KD of MS2 coat protein” value (input ligand: FMN 200 uM) is 590 nM, the “apparent KD of MS2 coat protein” value under setting [2] came out at 320 nM and the “apparent KD of MS2 coat protein” value (input ligand: none) came out at 387 nM.

“GUCAGGAAAGGAUAUACAAGUAGUCACUCUCUUUGCAGUUCACAUGAGGAUCACCCAUGUAGAAGGUUCGGACG [EX2 C.9] (Eterna round: R97, puzzle: Exclusion 2)”: the “apparent KD of MS2 coat protein” value by setting is: (input ligand: FMN 200 uM) 38.9 nM; (input ligand: none) 14.1 nM.

In the case of “GUCAUGUAAGGAUAUCUUACAUGUGACUUCGGUCACUGUCAAGAGAAGGUACAUGAGGAUCACCCAUGUUCGAC [Ex4-3: 52] (Eterna round: R96, puzzle: Exclusion 4)”, the “apparent KD of MS2 coat protein” value is, setting by setting: (input ligand: FMN 200 uM) 26.4 nM; under setting [2], 19.2 nM; (input ligand: none) 21 nM.

On to “GUCAUGUAAGGAUAUCUUACAUGUGACUUCGGUCACUGUCAAGAGAAGGUACAUGAGGAUCACCCAUGUUCGAC [Ex4-3: 52] (puzzle: Exclusion 4)”, for which the “apparent KD of MS2 coat protein” value under setting [1] worked out at 16.2 nM.

As for “GUCAUGUUAGGAUAUCUGACAUGUGACUUCGGUCACUGUCCAGAGAAGGAACAUGAGGAUCACCCAUGUUGGAC [Ex4-3: 55] (puzzle: Exclusion 4)”, the “apparent KD of MS2 coat protein” value under setting [1] is 43.2 nM.

Consider “GUCAUGUUAGGAUAUCUGGCAUGUGACUUCGGUCACUGUCCAGAGAAGGAACAUGAGGAUCACCCAUGUUGGAC [Ex4-3: 54] (puzzle: Exclusion 4)”, for which, under setting [1], the “apparent KD of MS2 coat protein” value turned out to be 48.2 nM.

Consider “GUCCCACAUGAGGAUCACCCAUGUGAGGAUAUGGUUUCGCUGGCCGUAGCCAGUGGAACCAGAAGGCGCGUGAU [Mat - Exclusion 1 - JL Mod - D17] (Eterna round: R97, puzzle: Exclusion 1)”, for which the “apparent KD of MS2 coat protein” value (input ligand: FMN 200 uM) worked out at 75 nM and the “apparent KD of MS2 coat protein” value (input ligand: none) was determined as 74.7 nM.

On to “GUCCGGCAUGUAGGAUAUGGAUCCGAUUAGGAUCCAGAAGGACAUGAGGAUCACCCAUGUACAUGUAAACAGUCAUCACCGGAC [Fiskers ExNg1 - 13] (Eterna round: R96, puzzle: Exclusion NG 1)”, for which the “apparent KD of MS2 coat protein” value (input ligand: FMN 200 uM) came out at 44.6 nM, the “apparent KD of MS2 coat protein” value under setting [2] is 14.1 nM and the “apparent KD of MS2 coat protein” value (input ligand: none) came to 18.7 nM.

For “GUCCUCAUGACAUGAGGAUCACCCAUGUAUUAUUUGGUAACUGAGGAUAUACUUUUAAUGUUUAUGUAGAAGGCAGAUACGGUU [JR_ExcNG3_Sub018] (Eterna round: R96, puzzle: Exclusion NG 3)”, the “apparent KD of MS2 coat protein” value is, setting by setting: (input ligand: FMN 200 uM) 197 nM; under setting [2], 53 nM; (input ligand: none) 62.3 nM.

On to “GUCCUCAUGACAUGAGGAUCACCCAUGUAUUAUUUGUUAACUGAGGAUAUACUCUUAAUUUUUAUGUAGAAGGCAGAUUCGGUC [JR_ExcNG3_Sub020] (Eterna round: R96, puzzle: Exclusion NG 3)”, for which the “apparent KD of MS2 coat protein” value under setting [2] turned out to be 24.8 nM.

With “GUCCUGAGCGUUAGGAUAUUCACAGUGGACUACUGGAAGAAGGGACAUGAGGAUCACCCAUGUUCGAUACUGGG [Eternabot (L1) Solution 64] (Eterna round: R97, puzzle: Brourd's mod of Exclusion 4)”, the “apparent KD of MS2 coat protein” value reads like this: (input ligand: FMN 200 uM) 72.2 nM; (input ligand: none) 47.2 nM.

Regarding “GUCGUGCGGCUUUGCUGUGCGGGUACAUGAGGAUCACCCAUGUAGGAUAUGGUGCGCUUUGCGUGCCAGAAGGGCGUGCGUUGG [salish99_ExNG3_r04_010] (Eterna round: R96, puzzle: Exclusion NG 3)”, the “apparent KD of MS2 coat protein” value (input ligand: FMN 200 uM) was 45.7 nM, the “apparent KD of MS2 coat protein” value under setting [2] came out at 28 nM and the “apparent KD of MS2 coat protein” value (input ligand: none) was determined as 36.4 nM.

For “GUCUCAGCUGAGGAUAUAAACUCCCUUGAGGGUUUAGAAGGCAGUACAUGAGGAUCACCCAUGUGGUUCGUUUG [eternacac ex6r4 sub27] (Eterna round: R97, puzzle: Exclusion 6)”, the “apparent KD of MS2 coat protein” value runs as follows: (input ligand: FMN 200 uM) 486 nM; (input ligand: none) 139 nM.

As for “GUCUGGUUAGGAUAUACAGUGUCCACGAGUUAGUUGCCCUAACAUGAGGAUCACCCAUGUAGAAGGAGCGAGAA [Erisared] (Eterna round: R96, puzzle: Exclusion 2)”, the “apparent KD of MS2 coat protein” value (input ligand: FMN 200 uM) came to 22.7 nM, the “apparent KD of MS2 coat protein” value under setting [2] was determined as 13.3 nM and the “apparent KD of MS2 coat protein” value (input ligand: none) was determined as 16.6 nM.

Take “GUGAAACAUGAGGAUCACCCAUGUCAGGAUAUGAUACUAUGUACUUCGGUACAUAGUAUCAGAAGGGACAGUGA [Ex1-3: 3] (puzzle: Exclusion 1)”: the “apparent KD of MS2 coat protein” value under setting [1] was found to be 74.4 nM.

With “GUGAAACAUGAGGAUCACCCAUGUCAGGAUAUGCAUCCAGUUCACCUAUAAAGACGGUGUAGAAGGGACAAUAA [Eternabot (Original) Solution 7] (Eterna round: R97, puzzle: Exclusion 1)”, the “apparent KD of MS2 coat protein” value by setting is: (input ligand: FMN 200 uM) 22.4 nM; (input ligand: none) 21.3 nM.

For the sequence “GUGAAGAAGUUAGUGGCCUACAUGAGGAUCACCCAUGUGAGGGAAAUGUCGAGGCGGAGGUUGUGUGCUCGUCUGUA [JR_SV3TOV1_Sub041] (puzzle: Sensor v3, turn-off variant 1)”, the “apparent KD of MS2 coat protein” value is 25.7 nM under setting [3], 27.6 nM under setting [1] and 26.4 nM under setting [4].

For “GUGAAGUGAGGAUAUACGAGAGAGGCUGAACCUGGAGAGAAGUAGAAGGCACAUGAGGAUCACCCAUGUAAGGA [JR_Exclu4_Sub020] (puzzle: Exclusion 4)”, the “apparent KD of MS2 coat protein” value is, setting by setting: under setting [3], 36.7 nM; under setting [1], 36.1 nM; under setting [4], 34.4 nM.

As for “GUGAGGUAAGGAUAUAGGAGAAAAGAUAAGGUAUGAGAGUUCUAGAAGGUACAUGAGGAUCACCCAUGUUAGGG [JR_Exclu4_Sub086] (puzzle: Exclusion 4)”, under setting [1], the “apparent KD of MS2 coat protein” value was determined as 257 nM.

Consider “GUGAUCUAUCAUGGGAUAAACAUGAGGAUCACCCAUGUAGACAAGUUUUUUGCUCGUCUUAUAAUAAGAUAGAUCAC [Antenna 1 - Jieux - Sensor, turn-off variant 1] (Eterna round: R97, puzzle: Sensor, turn-off variant 1)”, for which the “apparent KD of MS2 coat protein” value was 37.2 nM (input ligand: FMN 200 uM) and 39.4 nM (input ligand: none).

On to “GUGCAAUGAGGAUAUACGUAGGUGAAAAUCUGUGUGCUCCUACAUGAGGAUCACCCAUGUAGAAGGCAUGUCAC [LRO-Excl2-16] (puzzle: Exclusion 2)”, for which, under setting [1], the “apparent KD of MS2 coat protein” value worked out at 16 nM.

Consider “GUGCAGCGAGGAUAUCCAGACGGGUCCAGUACGUGUCUUGGACUUGAGGAUCACCCAAGUAGAAGGCGUCUCAG [salish99_ex2_r4_611] (Eterna round: R97, puzzle: Exclusion 2)”, for which the “apparent KD of MS2 coat protein” value came to 50.9 nM (input ligand: FMN 200 uM) and 114 nM (input ligand: none).
